Laboratory results published in paper PMC5519985 (Nature Communications, 2017).

Assays:
IL-13Rα1 (Homo sapiens) = IL-13Rα1 (Homo sapiens) (UniProt P78552); details: cited from earlier work
[1] = target: SNAPf-IL-13Rα1-TM (IL-13Rα1 truncated after the transmembrane domain); test: single molecule co-localization and co-tracking (dual-colour TIRF microscopy); ^DY547IL-4Rα-TM and ^DY647IL-13Rα1-TM reconstituted into polymer-supported membranes (PSM); ligand from 10 pM up to 50 μM, 5 min equilibration; equilibrium model fitted to the dimerization curves
HaloTag-IL-13Rα1 = HaloTag-IL-13Rα1 (UniProt P78552); test: particle image cross-correlation (PICCS) of single molecule localizations on live cells; HeLa cells co-expressing ^DY647IL-4Rα and ^TMRIL-13Rα1, without and with ligand; correlated fraction α; effective 2D constant by the law of mass action from α and the surface concentrations corrected for the degree of labelling
IL-4Rα (Homo sapiens) = IL-4Rα (Homo sapiens) (UniProt P24394); details: cited from earlier work
[2] = target: T1, IL-4Rα-EC/IL-4D binary complex on the SSM (UniProt P05112 25-153; P24394 26-232, H59Y | K84D, CoA-ATTO 488 on the ybbR-tag); test: TIRFS-RIf (total internal reflection fluorescence spectroscopy with reflectance interference); SSM with IL-4Rα-EC and IL-13Rα1-EC; dissociation of ^AT488IL-4D while free IL-13Rα1-EC is blocked by injection of IL-13 (Supplementary Fig. 7); details: both partners purified
T1 construct: interleukin-4; IL-4Rα, ectodomain; Chains as m2 and m10; source: formed on the solid-supported membrane from m2 and m10; not shown: ybbR-tag, N-terminal, kept; His10, C-terminal, kept
T1 sequence (looked up) 1: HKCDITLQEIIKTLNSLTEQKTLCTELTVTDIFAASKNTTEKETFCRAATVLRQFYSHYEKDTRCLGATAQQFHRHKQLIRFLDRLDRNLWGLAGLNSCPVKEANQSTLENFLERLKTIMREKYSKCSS
T1 sequence (looked up) 2: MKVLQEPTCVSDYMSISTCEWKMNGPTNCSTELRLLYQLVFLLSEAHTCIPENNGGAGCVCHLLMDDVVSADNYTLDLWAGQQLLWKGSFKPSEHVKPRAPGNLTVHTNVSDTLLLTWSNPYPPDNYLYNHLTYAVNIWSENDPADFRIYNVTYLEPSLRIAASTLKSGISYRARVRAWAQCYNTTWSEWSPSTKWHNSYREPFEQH

Molecule: IL-4 (from UniProt P05112)
- Kd (IL-13Rα1 (Homo sapiens)): 2500 nM

Molecule: IL-4/^DY547IL-4Rα-TM binary complex in the PSM (from UniProt P05112 25-153)
- 2D equilibrium dissociation constant (molecules μm^−2) [1]: 1.6

Molecule: IL-4/^DY647IL-4Rα binary complex in the plasma membrane of HeLa cells (from UniProt P05112 25-153; P24394 26-825)
- correlated fraction α (PICCS) (HaloTag-IL-13Rα1): 11%
- effective 2D equilibrium dissociation constant (molecules μm^−2) (HaloTag-IL-13Rα1): 0.1

Molecule: IL-13/IL-13Rα1-EC complex (from UniProt P35225)
- Kd (IL-4Rα (Homo sapiens)): 15 nM

B1: IL-13Rα1-EC (ectodomain of IL-13Rα1 with C-terminal decahistidine tag) (domain or fragment, UniProt P78552 22-343, looked up)
chain: GGGGAAPTETQPPVTNLSVSVENLCTVIWTWNPPEGASSNCSLWYFSHFGDKQDKKIAPETRRSIEVPLNERICLQVGSQCSTNESEKPSILVEKCISPPEGDPESAVTELQCIWHNLSYMKCSWLPGRNTSPDTNYTLYYWHRSLEKIHQCENIFREGQYFGCSFDLTKVKDSSFEQHSVQIMVKDNAGKIKPSFNIVPLTSRVKPDPPHIKNLSFHNDDLYVQWENPQNFISRCLFYEVEVNNSQTETHNVFYVQEAKCENPEFERNVENTSCFMVPGVLPDTLNTVRIRVKTNKLCYEDDKLWSNWSQEMSIGKKRNST
modifications: CoA-Alexa Fluor 568 on the ybbR-tag in the FRET experiments (^AF568IL-13Rα1-EC); else unlabelled
- binding result [2]: binds
